Test results from patent US20170204182A1 (published 2017).
Changes are numbered by the printed parent chain.

B1: Rb86 variant: HC 001_IGHV3_23_04 / LC 010--IMGT_hVK_1_17 (antibody, V domains shown)
VH: QQLVESGGGLVQPGGSLRLSCAASGFSLSSNAINWVRQAPGKGLEWVGYIAVSGNTYYASWAKGRFTISRDNSKNTLYLQMNSLRAEDTAVYYCGKSNIWGQGTLVTVSS
VL: DIQMTQSPSSLSASVGDRVTITCRASQGVRTNKLGWYQQKPGKAPKRLIYSASTLQSGVPSRFSGSGSGTEFTLTISSLQPEDFATYYCLGYFDCSIADCVAFGGGTKVEIK
B2: Rb86 variant: HC 001_IGHV3_23_04 / LC 017--IMGT_hVK_1_17 (antibody, V domains shown)
VH: B1 VH
VL: B1 VL with A25S, G28S, G35A, Y37F, K43Q, A44P, Q56D, S57F
B3: Rb86 variant: HC 001_IGHV3_23_04 / LC 013--IMGT_hVK_1_17 (antibody, V domains shown)
VH: B1 VH
VL: B1 VL with P8T, G35A, Y37F, K43Q, A44P
B4: Rb86 variant: HC 001_IGHV3_23_04 / LC 015--IMGT_hVK_1_17 (antibody, V domains shown)
VH: B1 VH
VL: B1 VL with G35A, Y37F, K43Q, A44P, C95S, C100S
B5: Rb86 variant: HC 001_IGHV3_23_04 / LC 014--IMGT_hVK_1_17 (antibody, V domains shown)
VH: B1 VH
VL: B1 VL with G35A, Y37F, K43Q, A44P, P81S
B6: Rb86 variant: HC Rb86 / LC 017--IMGT_hVK_1_17 (antibody, V domains shown)
VH: QSVEESGGRLVTPGTPLTLTCTVSGFSLSSNAINWVRQAPGKGLEWIGYIAVSGNTYYASWAKGRFTISKASTTVDLKMTSPTAEDTGTYFCGKSNIWGPGTLVTVSL
VL: B1 VL with A25S, G28S, G35A, Y37F, K43Q, A44P, Q56D, S57F
B7: CD81K04 HC CD81K04 / LC CD81K04 (antibody, V domains shown)
VH: QVQLQQSGPELVKPGASVKISCKASGYTFSSSWMNWVKQRPGKGLEWIGRIYSGDGDAIYNGKFKGKATLTADKSSSTAYMQLSSLTSEDSAVYFCAREGKTGDLLLRSWGQGSALTVSS
VL: DIVLTQSPASLSVSLGQRATISCRASKSVSTSIYSYMHWYQQKPGQPPKLLIKYASYLESGVPARFSGSGSGTDFTLNIHPVEEEDAATYYCEHSREFPFTFGTGTKLEIK
notes: chimeric form of murine CD81K04
B8: CD81K04 HC K04_JA-13-hVH_1_3 / LC CD81K04 (antibody, V domains shown)
VH: QVQLVQSGAEVKKPGASVKVSCKASGYTFSSSWMNWVRQAPGQRLEWMGRIYSGDGDAIYNGKFKGRVTITRDTSASTAYMELSSLRSEDTAVYYCAREGKTGDLLLRSWGQGTLVTVSS
VL: B7 VL

How the values were obtained:
[1] = biological target: T1, phosphorylated human tau protein (human, UniProt P10636-8 1-441, limits assumed, S422 phosphorylation); experiment: SPR (BIAcore); value set to 0 where kd not determinable
T1 construct: also called pTau
T1 sequence (P10636 other isoform, or with tags, fused parts or gaps limits assumed): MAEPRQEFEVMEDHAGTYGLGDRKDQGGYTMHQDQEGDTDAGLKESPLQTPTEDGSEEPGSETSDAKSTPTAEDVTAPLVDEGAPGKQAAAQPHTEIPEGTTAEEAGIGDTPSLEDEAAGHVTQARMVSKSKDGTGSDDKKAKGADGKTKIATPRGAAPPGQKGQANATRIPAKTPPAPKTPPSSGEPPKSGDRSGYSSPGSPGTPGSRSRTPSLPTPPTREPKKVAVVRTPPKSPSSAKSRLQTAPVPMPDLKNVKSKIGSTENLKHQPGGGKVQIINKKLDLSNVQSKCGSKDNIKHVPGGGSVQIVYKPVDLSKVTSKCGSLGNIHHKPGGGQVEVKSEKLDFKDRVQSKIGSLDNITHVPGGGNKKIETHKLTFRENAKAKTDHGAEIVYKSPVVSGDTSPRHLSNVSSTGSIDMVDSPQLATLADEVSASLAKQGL

[2] = biological target: T1, phosphorylated human tau protein; experiment: SPR (BIAcore), captured antibody
[3] = biological target: T2, CD81 (UniProt P60033 1-236, limits assumed); experiment: cell ELISA
T2 construct: whole, on cells; also called CD81 receptor
T2 sequence (looked up): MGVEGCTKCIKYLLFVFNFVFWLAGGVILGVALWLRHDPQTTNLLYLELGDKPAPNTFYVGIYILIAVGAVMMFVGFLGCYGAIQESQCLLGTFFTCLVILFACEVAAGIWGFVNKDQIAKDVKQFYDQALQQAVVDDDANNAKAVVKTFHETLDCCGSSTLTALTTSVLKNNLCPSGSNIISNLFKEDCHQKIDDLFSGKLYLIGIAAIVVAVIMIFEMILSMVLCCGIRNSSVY
Procedure: For the binding cell ELISA assay, HuH7-Rluc-H3 (positive cell line expressing CD81) and HuH7-Rluc-L1 (negative control cell line) were propagated in F-12 DMEM medium with 10% FCS at 37° C. and 5% CO₂. On day 1, the cells were trypsinized at approximately 90% confluence and resuspended at 4×10⁵ cells/mL. […] On day 2, the antibody samples to be tested were prepared in a separate polypropylene round bottom plate with a twofold desired concentration with a final volume of 120 μl. All of the assay samples were diluted in cell culture medium. […] After fixation, each well was washed 3 times with 200 μL PBS/0.05% Tween. The secondary incubation step for detection of bound anti-CD81 antibodies was performed for 2 h at room temperature on a reciprocal shaker. […] Each well was washed three times with 200 PBS/0.05% Tween to remove unbound antibodies. […] The absorbance was read using the ELISA Tecan reader at 450 nm with 620 nm reference wavelength.

Binder	half-life (t1/2) [2]	also measured
B1		half-life (t1/2) [1]: 0 h
B2	5.26 min	
B3	5.65 min	
B4	3.02 min	
B5	5.08 min	
B6	23.2 min	
B7		ELISA absorbance [3]: 1.14
B8		ELISA absorbance [3]: 0.975
